Experimental data published in the supplement of paper PMC10724198.
± gives the standard deviation of the averaged measurements.

The sequences below were run on Saccharomyces cerevisiae (assay: protein stability index of tFT-peptide fusion (C-terminal peptide) (PSI (0-1 scale)); higher = more stable (slower turnover)). Details: genetic background: doa10 deletion; temperature: 30 C.
Description: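 MPS profiling in S. cerevisiae of the tFT-X12 degron library: putative degron peptides plus stable controls, 12 aa, fused to the C-terminus of a sfGFP-mCherry timer. Cells are FACS-sorted into 8 mCherry/sfGFP bins and deep-sequenced. PSI runs from 0 (unstable) to 1 (stable). Backgrounds are wild type, das1Δ and doa10Δ at 30 °C, and wild type, das1Δ, cdc34-1 and cdc53-1 at 37 °C; 2-3 technical replicates each.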
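Note: PSI is a weighted mean of sequencing reads over stability bins, variants kept only with over 10 reads, mCherry proximal and sfGFP distal, peptide attached via GGGS linker.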

| Sequence | protein stability index |
| --- | --- |
| LWVMVLFFPGCS | 0.299 ± 0.0056 |
| LWVSHFVILIVS | 0.0934 ± 0.036 |
| LYRSLLLSFCVL | 0.407 ± 0.031 |
| LYSLRRNWLRTP | 0.1676 ± 0.0011 |
| MALAVRVVPCGA | 0.264 ± 0.011 |
| MALAVRVVSCGA | 0.2244 ± 0.00017 |
| MCVCLLVRVVPS | 0.175 ± 0.0074 |
| MGDFGFIFVFFL | 0.383 ± 0.0084 |
| MVVSLVLCFWAS | 0.222 ± 0.0091 |
| MWRWASKCRFSM | 0.231 ± 0.012 |
| NFSALECKVQLT | 0.647 ± 0.042 |
| NFTDMGRSLYIN | 0.166 ± 0.0031 |
| NHKNANAATLIN | 0.268 ± 0.016 |
| NVVIGLHLLVYI | 0.189 ± 0.022 |
| NYVVFVRGIKIT | 0.104 ± 0.0022 |
| PCVLAIYVWIRS | 0.083 ± 0.016 |
| PDRSTILHISGF | 0.644 ± 0.037 |

| Sequence | protein stability index |
| --- | --- |
| PETSRFALNEWG | 0.674 ± 0.043 |
| PFFFSFILVLFW | 0.2355 ± 0.0021 |
| PFFHVFLLLLLI | 0.313 ± 0.021 |
| PIKIYGYLTTVV | 0.474 ± 0.032 |
| PISLYFVWFFFF | 0.15 ± 0.011 |
| PLFPLLGLLFFF | 0.472 ± 0.032 |
| PPGLLPPCLLVV | 0.2485 ± 0.00054 |
| PPLPPVCPSPSL | 0.667 ± 0.023 |
| PPPNSSTSPPCS | 0.681 ± 0.029 |
| PPRRCFPLLLFF | 0.208 ± 0.0085 |
| PPSPVPPIWYLA | 0.233 ± 0.0083 |
| PRQGGDFVARVG | 0.631 ± 0.027 |
| PRSFFYIQFVFA | 0.194 ± 0.011 |
| PSDVLERVIRLL | 0.136 ± 0.0023 |
| PSLPPLPPFAAL | 0.663 ± 0.0099 |
| PSPVPPPSSPSP | 0.674 ± 0.021 |

Same assay, conditions: genetic background: wild type; temperature: 30 C

| Sequence | protein stability index |
| --- | --- |
| LWVMVLFFPGCS | 0.326 ± 0.025 |
| LWVSHFVILIVS | 0.108 ± 0.026 |
| LYRSLLLSFCVL | 0.411 ± 0.022 |
| LYSLRRNWLRTP | 0.21 ± 0.026 |
| MALAVRVVPCGA | 0.287 ± 0.037 |
| MALAVRVVSCGA | 0.262 ± 0.016 |
| MCVCLLVRVVPS | 0.194 ± 0.022 |
| MGDFGFIFVFFL | 0.414 ± 0.008 |
| MVVSLVLCFWAS | 0.244 ± 0.018 |
| MWRWASKCRFSM | 0.245 ± 0.022 |
| NFSALECKVQLT | 0.653 ± 0.026 |
| NFTDMGRSLYIN | 0.208 ± 0.054 |
| NHKNANAATLIN | 0.352 ± 0.038 |
| NVVIGLHLLVYI | 0.227 ± 0.014 |
| NYVVFVRGIKIT | 0.114 ± 0.016 |
| PCVLAIYVWIRS | 0.107 ± 0.016 |
| PDRSTILHISGF | 0.633 ± 0.0087 |

| Sequence | protein stability index |
| --- | --- |
| PETSRFALNEWG | 0.68 ± 0.02 |
| PFFFSFILVLFW | 0.186 ± 0.035 |
| PFFHVFLLLLLI | 0.154 ± 0.017 |
| PIKIYGYLTTVV | 0.475 ± 0.02 |
| PISLYFVWFFFF | 0.147 ± 0.0072 |
| PLFPLLGLLFFF | 0.496 ± 0.039 |
| PPGLLPPCLLVV | 0.301 ± 0.028 |
| PPLPPVCPSPSL | 0.685 ± 0.028 |
| PPPNSSTSPPCS | 0.687 ± 0.0096 |
| PPRRCFPLLLFF | 0.209 ± 0.014 |
| PPSPVPPIWYLA | 0.261 ± 0.045 |
| PRQGGDFVARVG | 0.641 ± 0.015 |
| PRSFFYIQFVFA | 0.224 ± 0.022 |
| PSDVLERVIRLL | 0.168 ± 0.01 |
| PSLPPLPPFAAL | 0.661 ± 0.02 |
| PSPVPPPSSPSP | 0.684 ± 0.029 |

Same assay, conditions: genetic background: wild type; temperature: 37 C

| Sequence | protein stability index |
| --- | --- |
| LWVMVLFFPGCS | 0.5361 ± 0.0032 |
| LWVSHFVILIVS | 0.16 ± 0.0095 |
| LYRSLLLSFCVL | 0.521 ± 0.012 |
| LYSLRRNWLRTP | 0.478 ± 0.019 |
| MALAVRVVPCGA | 0.421 ± 0.0078 |
| MALAVRVVSCGA | 0.3802 ± 0.0015 |
| MCVCLLVRVVPS | 0.357 ± 0.0044 |
| MGDFGFIFVFFL | 0.59233 ± 0.00044 |
| MVVSLVLCFWAS | 0.414 ± 0.055 |
| MWRWASKCRFSM | 0.515 ± 0.047 |
| NFSALECKVQLT | 0.689 ± 0.0082 |
| NFTDMGRSLYIN | 0.434 ± 0.024 |
| NHKNANAATLIN | 0.6016 ± 0.0051 |
| NVVIGLHLLVYI | 0.388 ± 0.018 |
| NYVVFVRGIKIT | 0.177 ± 0.016 |
| PCVLAIYVWIRS | 0.173 ± 0.011 |
| PDRSTILHISGF | 0.728 ± 0.023 |

| Sequence | protein stability index |
| --- | --- |
| PETSRFALNEWG | 0.717 ± 0.011 |
| PFFFSFILVLFW | 0.244 ± 0.02 |
| PFFHVFLLLLLI | 0.213 ± 0.0042 |
| PIKIYGYLTTVV | 0.6337 ± 0.0023 |
| PISLYFVWFFFF | 0.269 ± 0.015 |
| PLFPLLGLLFFF | 0.558 ± 0.018 |
| PPGLLPPCLLVV | 0.395 ± 0.011 |
| PPLPPVCPSPSL | 0.714 ± 0.004 |
| PPPNSSTSPPCS | 0.677 ± 0.013 |
| PPRRCFPLLLFF | 0.331 ± 0.012 |
| PPSPVPPIWYLA | 0.417 ± 0.019 |
| PRQGGDFVARVG | 0.721 ± 0.022 |
| PRSFFYIQFVFA | 0.375 ± 0.014 |
| PSDVLERVIRLL | 0.277 ± 0.051 |
| PSLPPLPPFAAL | 0.72 ± 0.024 |
| PSPVPPPSSPSP | 0.7075 ± 0.0063 |

Each sequence was assayed on Saccharomyces cerevisiae in the same assay as above. Details: genetic background: wild type; temperature: 30 C.

| Sequence | protein stability index |
| --- | --- |
| LWVMVLFFPGCS | 0.463 ± 0.043 |
| LWVSHFVILIVS | 0.213 ± 0.03 |
| LYRSLLLSFCVL | 0.483 ± 0.0052 |
| LYSLRRNWLRTP | 0.323 ± 0.04 |
| MALAVRVVPCGA | 0.397 ± 0.017 |
| MALAVRVVSCGA | 0.3657 ± 0.0028 |
| MCVCLLVRVVPS | 0.297 ± 0.044 |
| MGDFGFIFVFFL | 0.502 ± 0.02 |
| MVVSLVLCFWAS | 0.255 ± 0.045 |
| MWRWASKCRFSM | 0.367 ± 0.011 |
| NFSALECKVQLT | 0.75 ± 0.052 |
| NFTDMGRSLYIN | 0.279 ± 0.057 |
| NHKNANAATLIN | 0.4548 ± 0.0018 |
| NVVIGLHLLVYI | 0.326 ± 0.049 |
| NYVVFVRGIKIT | 0.186 ± 0.1 |
| PCVLAIYVWIRS | 0.163 ± 0.054 |
| PDRSTILHISGF | 0.699 ± 0.019 |

| Sequence | protein stability index |
| --- | --- |
| PETSRFALNEWG | 0.727 ± 0.059 |
| PFFFSFILVLFW | 0.264 ± 0.028 |
| PFFHVFLLLLLI | 0.195 ± 0.0064 |
| PIKIYGYLTTVV | 0.523 ± 0.045 |
| PISLYFVWFFFF | 0.195 ± 0.074 |
| PLFPLLGLLFFF | 0.461 ± 0.046 |
| PPGLLPPCLLVV | 0.39 ± 0.05 |
| PPLPPVCPSPSL | 0.485 ± 0.0061 |
| PPPNSSTSPPCS | 0.196 ± 0.015 |
| PPRRCFPLLLFF | 0.235 ± 0.036 |
| PPSPVPPIWYLA | 0.372 ± 0.0055 |
| PRQGGDFVARVG | 0.7001 ± 0.0014 |
| PRSFFYIQFVFA | 0.324 ± 0.0069 |
| PSDVLERVIRLL | 0.265 ± 0.026 |
| PSLPPLPPFAAL | 0.749 ± 0.052 |
| PSPVPPPSSPSP | 0.71 ± 0.012 |
